# Laboratory results published in US10273305B2, “Bispecific CXCR4-CD4 polypeptides with potent anti-HIV activity” (Ablynx N.V., priority 2015, dated 2019).
# Tests used:
# [1] = test system: R5 HIV-1 BaL virus; assay: TZM-bl luciferase assay, BaL; assay type: cell-based; conditions: read-out: IC50 R5 HIV-1 BaL virus in TZM-bl cells
# [2] = test system: dual-tropic R5/X4 HIV-1 HE; assay: HIV-1 HE infection of PBMCs, p24; assay type: cell-based
# [3] = test system: X4 HIV-1 NL4.3 WT; assay: TZM-bl luciferase assay, NL4.3 WT; assay type: cell-based
# [4] = test system: dual-tropic R5/X4 HIV-2 ROD; assay: TZM-bl luciferase assay, HIV-2 ROD; assay type: cell-based
# [5] = test system: R5 DJ259; assay: TZM-bl luciferase assay, DJ259; assay type: cell-based, HIV-1; conditions: read-out: IC50 TZM-bl R5 DJ259 n = 2
# [6] = test system: R5 SM145; assay: TZM-bl luciferase assay, SM145; assay type: cell-based, HIV-1; conditions: read-out: IC50 TZM-bl R5 SM145 n = 2
# [7] = test system: dual-tropic R5/X4 HIV-1 HE; assay: TZM-bl luciferase assay, HE; assay type: cell-based
# [8] = target: cynomolgus CD4 (Macaca fascicularis, UniProt P79185); assay: Binding of 3F11 to cynomolgus CD4+ HSC-F T cells, flow cytometry; conditions: HSC-F T cell line
# cynomolgus CD4, sequence (P79185 26-458): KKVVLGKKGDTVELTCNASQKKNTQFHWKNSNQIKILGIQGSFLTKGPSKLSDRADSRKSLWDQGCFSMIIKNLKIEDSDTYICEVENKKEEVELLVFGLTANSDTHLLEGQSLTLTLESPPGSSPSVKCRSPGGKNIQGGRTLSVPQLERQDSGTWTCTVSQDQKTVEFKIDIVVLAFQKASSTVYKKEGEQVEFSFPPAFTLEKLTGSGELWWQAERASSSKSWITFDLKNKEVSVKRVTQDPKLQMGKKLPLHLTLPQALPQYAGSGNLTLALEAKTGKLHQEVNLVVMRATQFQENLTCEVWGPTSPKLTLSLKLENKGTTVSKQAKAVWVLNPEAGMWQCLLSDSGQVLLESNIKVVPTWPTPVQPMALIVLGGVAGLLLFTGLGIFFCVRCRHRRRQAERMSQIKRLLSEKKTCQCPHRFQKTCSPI
# [9] = test system: HIV-1 X4 NL4.3 strain; assay: HIV-1 NL4.3 infection of PHA-stimulated PBMCs, p24 Ag ELISA; assay type: cell-based
# [10] = target: T1, CD4 (Homo sapiens, UniProt P01730); assay: FACS binding of CD4 Nanobody 3F11 to human cells; conditions: CD8+ T cells isolated from human PBMCs
# Procedure: The EC50 values results are depicted in Table 2.4. […] To confirm the specificity of the anti-CD4 Nanobody, binding of 03F11 was also assessed to cytotoxic CD8^+ T cells isolated from human PBMCs using the CD8 T Cell Isolation Kit (Miltenyi Biotech, Cat. 130-096-495), resulting in 94% purity of CD8^+ cells.
# [11] = target: T1, CD4; assay: Flow cytometry binding of purified CD4 Nanobodies to Jurkat and THP-1 cells; conditions: 100 nM Nanobody
# Procedure: Murine Ba/F3 myeloid cells were used as negative control cells. Purified Nanobodies (100 nM) were allowed to bind to 10^5 cells for 30 minutes at 4° C. in a final volume of 100 μl of 10% FBS (Invitrogen, Cat 10270-106) in PBS (Invitrogen #14190). Bound Nanobodies were detected with mouse anti-myc antibody (Serotec, Cat#MCA2200) followed by goat anti-mouse-PE antibody (Jackson #115-115-164). Dead cells percentage population was determined by staining the cells with TOPRO3 (Molecular probes T3605). Using a BD FACS Array Bioanalyzer system, a PE filter 585/42 and a Topro filter 661/16, twenty thousand events were acquired. TOPRO3+ cells were excluded, and the mean channel fluorescence (MCF) was calculated. Expression of CD4 in Jurkat and THP-1 cells was confirmed by using 10 μg/ml of an anti-CD4 monoclonal antibody (Diaclone, clone B-A1 cat#854.030.000). Staining of the cells with anti-myc and/or the goat anti mouse-PE antibodies antibody was performed as negative controls.
# [12] = target: interaction of CD4 with the viral gp120 protein (Homo sapiens, UniProt P01730); assay: ELISA-based competition of CD4-gp120 interaction; assay type: binding; conditions: 500 nM Nanobody; gp120 HIV-1 IIIB
# Procedure: Besides its role on T-cells, CD4 also serves as primary receptor for HIV entry. Therefore purified CD4 Nanobodies were analysed for the capacity to block the interaction of CD4 with the viral gp120 protein. Monovalent His-tagged Nanobodies were purified from periplasmic extracts by affinity and desalting chromatography and used in an ELISA-based competition setup. In short, 1 μg/ml of gp120 HIV-1 IIIB (Immunodiagnostic) was captured by 20 μg/ml of sheep anti-gp120 antibody D7324 (Aalto Bio Reagents) previously coated in 96 well Maxisorp microtiter plates (Nunc) and blocked with 1% casein in PBS. In parallel, 0.5 μg/ml of biotinylated CD4 was incubated with 500 nM of the different purified Nanobodies in 100 μl 0.1% Casein/PBS. After 1 hour, the biotinylated CD4-Nanobody pre-mixes were incubated 1 hour with the captured gp120. Bound biotinylated CD4 was detected using HRP-conjugated Extravidin (Sigma E2886). A blocking mouse anti-CD4 IgG2a antibody (Diaclone, clone B-A1 cat#854.030.000) was used as positive control. Blocking activity was determined as loss of O.D. signal, as compared to wells where no Nanobody was added.
# [13] = target: T2, CXCR4 (Homo sapiens, UniProt P61073); assay: CXCL12-AF647 binding inhibition on SupT1 cells by flow cytometry; conditions: T-cells (SUPT-1)
# T2 sequence (P61073 whole entry): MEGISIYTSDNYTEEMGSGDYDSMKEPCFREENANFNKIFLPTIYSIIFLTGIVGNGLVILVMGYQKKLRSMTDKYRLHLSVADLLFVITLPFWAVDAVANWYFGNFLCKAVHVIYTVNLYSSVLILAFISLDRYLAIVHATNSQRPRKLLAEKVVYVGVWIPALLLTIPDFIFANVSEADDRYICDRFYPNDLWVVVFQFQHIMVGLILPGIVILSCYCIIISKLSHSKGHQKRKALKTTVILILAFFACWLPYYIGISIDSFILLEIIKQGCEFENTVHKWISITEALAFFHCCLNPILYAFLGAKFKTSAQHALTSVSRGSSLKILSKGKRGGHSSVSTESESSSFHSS
# [14] = target: T2, CXCR4; assay: Inhibition of SDF-1 mediated chemotaxis; assay type: cell-based; conditions: average of 3
# Procedure: As chemoattractant a concentration of 750 pM SDF-1α (R&D Systems) was used on 100,000 cells/well for the Jurkat cell line, and 500,000 cells/well for the MOLM-13 cell line. SDF-1α and serially diluted Nanobody constructs were added to the bottom of a small chemotaxis plate (Neuprobe 106-5) in a total volume of 29 μl. A chemotaxis filter membrane (ChemoTx® Disposibla, pore size 5 μm) was placed on top of the wells, ensuring that the membrane was in contact with the solution in the wells below. A Nanobody dilution (10 μl at 5× the serially diluted final concentration as below the membrane in each well) was added on top of the membrane, followed by 40 μl of cell suspension. The plates were incubated for 3 hours at 37° C. in a humidified incubator (5% CO2). After incubation, the filters were carefully removed and the cells in the well below were resuspended in the existing solution. The complete cell suspension was transferred to the corresponding wells of white polystyrene Costar plates. After this, 30 μl of Cell Titer Glo reagent (Promega G7571) was added to each well, followed by a 10 minute incubation, with shaking in the dark. Luminescence was measured (1 sec/well) using an Envision 2103 Multilabel Reader with emission filter 700 (Perkin Elmer). […]
# [15] = target: T2, CXCR4; assay: Inhibition of SDF-1 induced Ca2+ signaling in U87.CD4.CXCR4 cells (FLIPR); assay type: cell-based
# [16] = test system: HUT-78/HIV-1 NL4.3; assay: HIV-1-mediated cell-cell fusion, HUT-78/NL4.3 with SupT1 cells; conditions: read-out: IC50 cell-cell fusion
Molecule,IC50 [1] [µM],IC50 dual-tropic R5/X4 HIV-1 HE in PBMCs [2],IC50 X4 HIV-1 NL4.3 in TZM-bl cells [3],activity against R5/X4 HIV-2 ROD in TZM-bl cells [4],IC50 [5] [µM],IC50 [6] [µM],activity against R5/X4 HIV-1 HE in TZM-bl cells [7],binding to cynomolgus CD4 [8],IC50 HIV-1 NL4.3 in PBMC [9],binding to cytotoxic CD8+ T cells [10],binding to CD4 expressed on a cell surface [11],blocking of in vitro interaction of CD4 with gp120 [12],IC50 of blocking CXCL12AF647 binding to CXCR4 [13],Inhibition of SDF-1a-mediated chemotaxis IC50 MOLM-13 cells [14],IC50 of CXCL-12-induced Ca2+-signaling inhibition [15],IC50 [16] [µM]
maraviroc [AMD14031],4.2,never showed any significant anti-HIV-1 HE activity,did not block,did not block,7.54,2.82,did not block,–,–,–,–,–,–,–,–,–
"3F11: anti-CD4 Nanobody, SEQ ID NO: 20 (protein, Nanobody Sequence) VHH: EVQLVESGGGSVQPGGSLTLSCGTSGRTFNVMGWFRQAPGKEREFVAAVRWSSTGIYYTQYADSVKSRFTISRDNAKNTVYLEMNSLKPEDTAVYYCAADTYNSNPARWDGYDFRGQGTQVTVSS",–,not active,–,–,–,–,–,cross-reactive to cynomolgus CD4,weakly active,No binding,highest binding signal on THP-1 cells,block,did not interfere,did not have any effect on SDF-1 function,no CXCL-12-induced Ca^2+-signaling inhibition,2.7
